Laboratory results: patent publication US20150258192A1, “COMPOSITIONS AND METHODS FOR PREVENTING OR TREATING CHRONIC LUNG ALLOGRAFT DYSFUNCTION (CLAD) AND IDIOPATHIC PULMONARY FIBROSIS (IPF)” (priority 2014, published 2015)
No end group written: not given here.

How the values were obtained:
Assay in all cases: Kinase Profiling Assay
Assay type in all cases: biochemical
Details in all cases: peptide 100 μM
[1] = target: CaMKIIγ(h) (Homo sapiens, UniProt Q13555)
Method in brief: (§1)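 Activity remaining relative to an uninhibited control was determined by scintillation counting of labeled substrate bound to a negatively charged filter. Radiolabeled phosphate came from ATP; the substrate carried positive charge. Duplicate measurements, within a 266-kinase human panel.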

[2] = target: T1, DRAK1(h) (Homo sapiens, UniProt Q9UEE5)
T1 sequence (Q9UEE5 1-414): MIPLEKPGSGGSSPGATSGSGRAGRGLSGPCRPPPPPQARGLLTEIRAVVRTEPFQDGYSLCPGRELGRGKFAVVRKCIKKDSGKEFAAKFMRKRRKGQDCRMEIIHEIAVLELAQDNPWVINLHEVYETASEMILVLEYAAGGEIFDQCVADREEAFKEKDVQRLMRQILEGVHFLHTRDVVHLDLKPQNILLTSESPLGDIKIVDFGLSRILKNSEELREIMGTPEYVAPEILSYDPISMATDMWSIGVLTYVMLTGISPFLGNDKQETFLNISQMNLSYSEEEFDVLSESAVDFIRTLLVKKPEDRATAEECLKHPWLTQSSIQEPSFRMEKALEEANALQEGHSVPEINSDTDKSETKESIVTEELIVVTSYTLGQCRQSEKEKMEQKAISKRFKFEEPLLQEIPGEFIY
Method in brief: as §1

[3] = target: Flt1(h) (Homo sapiens, UniProt P17948)
Flt1(h), sequence (P17948 27-1338): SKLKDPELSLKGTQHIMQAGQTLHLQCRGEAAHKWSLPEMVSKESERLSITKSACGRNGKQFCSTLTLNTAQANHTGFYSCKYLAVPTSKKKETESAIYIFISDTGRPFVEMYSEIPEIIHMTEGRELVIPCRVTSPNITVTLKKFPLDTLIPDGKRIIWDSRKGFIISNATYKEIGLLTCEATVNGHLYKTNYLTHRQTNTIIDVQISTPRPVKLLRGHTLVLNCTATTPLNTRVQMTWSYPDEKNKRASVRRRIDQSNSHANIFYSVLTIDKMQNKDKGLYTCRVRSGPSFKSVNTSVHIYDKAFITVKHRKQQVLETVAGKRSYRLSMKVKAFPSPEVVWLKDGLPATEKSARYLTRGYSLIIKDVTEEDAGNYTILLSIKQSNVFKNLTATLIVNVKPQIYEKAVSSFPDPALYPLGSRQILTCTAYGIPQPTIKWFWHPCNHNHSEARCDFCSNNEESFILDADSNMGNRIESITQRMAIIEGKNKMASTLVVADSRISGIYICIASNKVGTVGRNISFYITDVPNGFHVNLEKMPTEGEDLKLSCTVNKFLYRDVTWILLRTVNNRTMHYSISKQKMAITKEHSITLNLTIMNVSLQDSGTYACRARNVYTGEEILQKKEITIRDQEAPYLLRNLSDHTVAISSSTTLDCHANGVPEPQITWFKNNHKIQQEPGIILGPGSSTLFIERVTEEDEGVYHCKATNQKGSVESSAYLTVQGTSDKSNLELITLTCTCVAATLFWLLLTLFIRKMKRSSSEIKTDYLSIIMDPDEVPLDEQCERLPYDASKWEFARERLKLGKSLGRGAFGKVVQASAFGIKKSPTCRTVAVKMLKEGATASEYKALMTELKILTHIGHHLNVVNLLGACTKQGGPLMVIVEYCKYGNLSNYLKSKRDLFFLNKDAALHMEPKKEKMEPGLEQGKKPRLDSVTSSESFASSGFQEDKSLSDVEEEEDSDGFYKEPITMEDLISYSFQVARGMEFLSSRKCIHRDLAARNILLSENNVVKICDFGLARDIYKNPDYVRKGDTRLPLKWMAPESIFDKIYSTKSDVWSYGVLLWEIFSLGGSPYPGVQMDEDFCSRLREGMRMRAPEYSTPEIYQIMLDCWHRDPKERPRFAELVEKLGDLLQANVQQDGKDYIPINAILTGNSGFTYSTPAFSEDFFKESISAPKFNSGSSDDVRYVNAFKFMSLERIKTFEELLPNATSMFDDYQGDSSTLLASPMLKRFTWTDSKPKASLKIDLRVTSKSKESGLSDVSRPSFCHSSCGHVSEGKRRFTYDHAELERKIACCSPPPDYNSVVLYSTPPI
Method in brief: as §1

[4] = target: T2, MSSK1(h) (Homo sapiens, UniProt Q9UPE1)
T2 construct: purchased Millipore
T2 sequence (Q9UPE1 whole entry): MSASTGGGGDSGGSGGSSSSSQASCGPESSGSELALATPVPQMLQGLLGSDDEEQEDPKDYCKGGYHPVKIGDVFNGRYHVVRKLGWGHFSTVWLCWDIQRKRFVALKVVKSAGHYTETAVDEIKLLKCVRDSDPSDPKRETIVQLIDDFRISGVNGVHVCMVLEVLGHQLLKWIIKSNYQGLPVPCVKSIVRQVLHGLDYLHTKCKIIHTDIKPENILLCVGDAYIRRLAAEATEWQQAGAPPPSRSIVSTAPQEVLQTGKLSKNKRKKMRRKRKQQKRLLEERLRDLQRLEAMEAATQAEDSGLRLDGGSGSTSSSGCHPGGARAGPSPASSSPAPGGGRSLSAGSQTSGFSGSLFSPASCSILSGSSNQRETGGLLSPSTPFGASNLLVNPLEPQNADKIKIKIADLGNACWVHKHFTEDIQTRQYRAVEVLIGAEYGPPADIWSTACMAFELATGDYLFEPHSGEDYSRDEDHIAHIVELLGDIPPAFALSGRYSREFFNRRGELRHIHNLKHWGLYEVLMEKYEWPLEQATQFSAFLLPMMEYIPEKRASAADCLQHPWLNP
Method in brief: as §1

[5] = target: T3, MST3(h) (Homo sapiens, UniProt Q9Y6E0)
T3 construct: purchased Millipore
T3 sequence (Q9Y6E0 whole entry): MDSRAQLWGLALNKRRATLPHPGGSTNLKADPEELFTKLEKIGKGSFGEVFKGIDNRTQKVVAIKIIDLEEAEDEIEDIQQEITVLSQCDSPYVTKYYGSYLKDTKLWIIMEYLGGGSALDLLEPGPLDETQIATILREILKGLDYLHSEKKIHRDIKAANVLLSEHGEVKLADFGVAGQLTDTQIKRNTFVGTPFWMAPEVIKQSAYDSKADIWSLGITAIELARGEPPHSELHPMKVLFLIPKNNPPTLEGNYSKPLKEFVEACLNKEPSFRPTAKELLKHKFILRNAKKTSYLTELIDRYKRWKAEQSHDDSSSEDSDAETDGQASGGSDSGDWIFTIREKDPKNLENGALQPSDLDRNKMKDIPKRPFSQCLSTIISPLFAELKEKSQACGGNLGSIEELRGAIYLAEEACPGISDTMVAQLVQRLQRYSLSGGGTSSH
Method in brief: as §1

[6] = target: T4, Met(D1246H)(h) (Homo sapiens, UniProt P08581, D1228H)
T4 construct: purchased Millipore
Method in brief: as §1

[7] = target: T5, TBK1(h) (Homo sapiens, UniProt Q9UHD2)
T5 construct: purchased Millipore
T5 sequence (Q9UHD2 1-729): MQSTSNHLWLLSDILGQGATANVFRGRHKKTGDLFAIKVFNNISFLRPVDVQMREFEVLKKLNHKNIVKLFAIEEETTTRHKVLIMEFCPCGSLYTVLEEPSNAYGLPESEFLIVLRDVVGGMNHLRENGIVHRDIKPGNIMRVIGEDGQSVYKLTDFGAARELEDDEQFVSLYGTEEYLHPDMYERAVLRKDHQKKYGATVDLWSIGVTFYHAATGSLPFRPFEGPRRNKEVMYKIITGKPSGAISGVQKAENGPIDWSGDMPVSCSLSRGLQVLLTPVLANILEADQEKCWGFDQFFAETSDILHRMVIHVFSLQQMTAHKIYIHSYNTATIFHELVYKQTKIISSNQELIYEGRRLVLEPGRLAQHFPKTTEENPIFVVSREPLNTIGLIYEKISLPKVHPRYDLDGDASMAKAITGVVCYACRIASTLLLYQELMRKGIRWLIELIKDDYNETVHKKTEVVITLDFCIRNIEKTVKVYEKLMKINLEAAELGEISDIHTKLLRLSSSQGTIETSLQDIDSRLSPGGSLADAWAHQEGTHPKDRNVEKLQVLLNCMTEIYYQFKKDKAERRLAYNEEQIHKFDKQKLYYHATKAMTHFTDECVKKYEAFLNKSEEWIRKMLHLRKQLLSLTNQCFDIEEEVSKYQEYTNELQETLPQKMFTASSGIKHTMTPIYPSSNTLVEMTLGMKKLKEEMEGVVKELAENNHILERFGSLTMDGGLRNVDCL
Method in brief: as §1

[8] = target: T6, Txk(h) (Homo sapiens, UniProt P42681)
T6 sequence (P42681 1-527): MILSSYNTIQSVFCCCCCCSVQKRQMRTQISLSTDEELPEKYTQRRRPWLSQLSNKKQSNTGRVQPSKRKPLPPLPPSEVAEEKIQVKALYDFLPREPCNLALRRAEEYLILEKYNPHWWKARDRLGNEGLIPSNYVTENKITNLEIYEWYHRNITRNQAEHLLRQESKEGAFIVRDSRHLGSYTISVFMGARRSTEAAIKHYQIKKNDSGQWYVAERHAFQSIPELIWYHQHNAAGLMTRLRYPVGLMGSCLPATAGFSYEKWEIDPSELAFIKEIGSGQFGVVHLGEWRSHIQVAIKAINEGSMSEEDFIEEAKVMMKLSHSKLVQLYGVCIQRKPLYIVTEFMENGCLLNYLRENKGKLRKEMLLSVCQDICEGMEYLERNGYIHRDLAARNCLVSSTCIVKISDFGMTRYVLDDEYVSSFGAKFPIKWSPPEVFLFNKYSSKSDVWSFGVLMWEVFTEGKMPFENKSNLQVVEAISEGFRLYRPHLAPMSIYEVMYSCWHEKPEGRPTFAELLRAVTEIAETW
Method in brief: as §1

[9] = target: cKit(h) (Homo sapiens, UniProt P10721)
Method in brief: as §1

[10] = target: T7, CHK1(h) (Homo sapiens, UniProt O14757)
T7 sequence (O14757 1-476): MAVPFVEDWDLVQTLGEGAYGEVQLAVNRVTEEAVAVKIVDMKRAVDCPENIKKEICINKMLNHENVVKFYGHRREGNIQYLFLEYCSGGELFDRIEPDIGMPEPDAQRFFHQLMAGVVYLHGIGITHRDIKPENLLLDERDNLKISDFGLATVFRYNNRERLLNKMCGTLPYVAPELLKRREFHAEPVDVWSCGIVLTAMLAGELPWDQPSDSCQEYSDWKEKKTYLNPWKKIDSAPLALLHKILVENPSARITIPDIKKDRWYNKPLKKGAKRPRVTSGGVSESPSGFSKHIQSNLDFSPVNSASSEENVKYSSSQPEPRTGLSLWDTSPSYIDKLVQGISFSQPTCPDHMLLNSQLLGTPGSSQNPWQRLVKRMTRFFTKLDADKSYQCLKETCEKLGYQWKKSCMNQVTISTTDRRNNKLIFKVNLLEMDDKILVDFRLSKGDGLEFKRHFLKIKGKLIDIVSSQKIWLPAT
Method in brief: as §1

[11] = target: T8, MARK1(h) (Homo sapiens, UniProt Q9P0L2)
T8 construct: purchased Millipore
T8 sequence (Q9P0L2 whole entry): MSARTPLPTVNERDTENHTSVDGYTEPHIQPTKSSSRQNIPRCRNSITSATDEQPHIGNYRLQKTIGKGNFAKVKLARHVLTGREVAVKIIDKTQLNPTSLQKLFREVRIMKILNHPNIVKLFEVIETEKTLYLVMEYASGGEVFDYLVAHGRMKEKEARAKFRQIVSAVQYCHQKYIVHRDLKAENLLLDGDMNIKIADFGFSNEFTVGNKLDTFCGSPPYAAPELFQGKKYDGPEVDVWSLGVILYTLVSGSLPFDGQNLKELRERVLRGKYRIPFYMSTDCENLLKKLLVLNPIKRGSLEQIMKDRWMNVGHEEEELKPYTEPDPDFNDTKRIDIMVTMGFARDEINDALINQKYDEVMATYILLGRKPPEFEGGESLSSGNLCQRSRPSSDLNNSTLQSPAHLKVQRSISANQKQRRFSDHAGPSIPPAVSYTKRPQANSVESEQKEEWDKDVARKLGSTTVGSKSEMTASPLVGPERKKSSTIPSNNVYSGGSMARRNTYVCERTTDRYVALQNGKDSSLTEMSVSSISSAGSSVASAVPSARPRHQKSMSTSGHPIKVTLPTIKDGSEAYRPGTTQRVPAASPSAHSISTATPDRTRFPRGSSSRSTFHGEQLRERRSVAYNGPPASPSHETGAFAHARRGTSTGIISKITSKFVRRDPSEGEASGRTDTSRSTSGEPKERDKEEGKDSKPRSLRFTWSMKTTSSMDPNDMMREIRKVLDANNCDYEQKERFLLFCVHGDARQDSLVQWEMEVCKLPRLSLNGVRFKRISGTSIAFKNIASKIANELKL
Method in brief: as §1

CaMKIIγ(h), sequence (Q13555 whole entry): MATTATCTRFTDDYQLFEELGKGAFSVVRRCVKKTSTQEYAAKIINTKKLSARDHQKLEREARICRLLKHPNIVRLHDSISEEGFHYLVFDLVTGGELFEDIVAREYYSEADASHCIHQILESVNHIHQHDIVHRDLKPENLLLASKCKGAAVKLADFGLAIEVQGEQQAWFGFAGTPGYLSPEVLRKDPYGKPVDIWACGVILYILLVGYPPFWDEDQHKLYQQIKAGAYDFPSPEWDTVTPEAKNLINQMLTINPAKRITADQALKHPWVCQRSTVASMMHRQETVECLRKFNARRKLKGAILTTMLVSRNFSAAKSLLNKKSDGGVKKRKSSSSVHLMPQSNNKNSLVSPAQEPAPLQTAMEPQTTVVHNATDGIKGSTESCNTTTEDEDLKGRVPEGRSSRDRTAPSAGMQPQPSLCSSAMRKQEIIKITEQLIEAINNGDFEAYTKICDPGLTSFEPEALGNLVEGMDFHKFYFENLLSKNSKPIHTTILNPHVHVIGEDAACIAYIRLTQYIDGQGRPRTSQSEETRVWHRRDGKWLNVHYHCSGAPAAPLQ

YARAAARQARAKALNRQLGVA (Mammal) [MMI-0200]
% activity [1]: 94% | % activity [2]: 34% | % activity [3]: 96% | % activity [4]: 100% | % activity [5]: 95% | % activity [6]: 139% | % activity [7]: 98% | % activity [8]: 98% | % activity [9]: 110%

YARAAARQARAKALARQLGVAA [MMI-0100]
% activity [2]: 47% | % activity [4]: 82% | % activity [6]: 99% | % activity [8]: 87% | % activity [9]: 95%

HRRIKAWLKKIKALARQLGVAA (Mammal) [MMI-0500]
% activity [10]: 65% | % activity [1]: 3% | % activity [2]: 8% | % activity [3]: 27% | % activity [11]: 110% | % activity [4]: 22% | % activity [5]: 4% | % activity [6]: 150% | % activity [7]: 16% | % activity [8]: 10% | % activity [9]: 45%

KAFAKLAARLYRKALARQLGVAA [MMI-0400]
% activity [10]: 87% | % activity [1]: 3% | % activity [2]: 14% | % activity [3]: 48% | % activity [11]: 120% | % activity [4]: 75% | % activity [5]: 36% | % activity [6]: 68% | % activity [7]: 39% | % activity [8]: 37% | % activity [9]: 43%

FAKLAARLYRKALARQLGVAA [MMI-0300]
% activity [10]: 91% | % activity [1]: 5% | % activity [2]: 14% | % activity [3]: 69% | % activity [11]: 132% | % activity [4]: 77% | % activity [5]: 45% | % activity [6]: 125% | % activity [7]: 37% | % activity [8]: 48% | % activity [9]: 53%
